{
  "source": "patent US20150174169",
  "key": {"[1]": {"system": "IL2RG ZFN pair (ZFN-L/ZFN-R, exon 5) (synthetic construct)", "assay": "cell_activity", "conditions": "in vitro sample A"}, "[2]": {"system": "AAVS1 ZFN pair (ZFN-L/ZFN-R, PPP1R12C intron 1) (synthetic construct)", "assay": "cell_activity", "conditions": "CD34+ cord blood cells, Cel-1 mismatch assay, +/-3.8"}},
  "data": [
    {"substance": "SCARB1 off-target site", "values": [
      {"measurement": "activity", "setting": "[1]; B 0.70, G ns, ns in mouse", "value": 0.17, "unit": "% NHEJ"}
    ]},
    {"substance": "SLC31A1 off-target site", "values": [
      {"measurement": "activity", "setting": "[1]; B and G ns, mouse C0 0.02", "value": 0.61, "unit": "% NHEJ"}
    ]},
    {"substance": "IL2RG ZFN target site", "values": [
      {"measurement": "activity", "setting": "[1]; deep sequencing, B 61.18, G 45.60, Cel-1 assay 26.3+/-2.7 (p192)", "value": 54.6, "unit": "% NHEJ"}
    ]},
    {"substance": "AAVS1 ZFN target site", "values": [
      {"measurement": "activity", "setting": "[2]", "value": 23.8, "unit": "% NHEJ"}
    ]}
  ]
}
